Measured values published in patent US20250277045A1 (KEYMED BIOSCIENCES, published 2025).

Tests used:
[1] = target: T1, human CD3 on T cells (Jurkat cells; human peripheral blood CD4+ and CD8+ T cells) (human, UniProt P07766 23-207); experiment: flow cytometry, Jurkat cells
T1 construct: whole, on cells; also called CD3ε
Procedure: Jurkat cells in the logarithmic growth phase were added with 200 μg/mL murine IgG (Jackson ImmunoResearch, 115-005-03) and incubated on ice for 30 min. […] 50 μL/well Alexa Fluro647 labeled goat anti-human IgG Fc (1:300 dilution) was added to the secondary antibody, incubated on ice for 20 min, 50 μL/well PI was added after washing once, incubated for 5 min, and flow cytometer (BD C6) was used to perform detection.

[2] = target: T2, human BCMA on cells (CHO-hBCMA clone 2C2; NCI-H929; RPMI-8226) (human, UniProt Q02223 1-184); experiment: flow cytometry, NCI-H929 cells
T2 construct: whole, on cells; also called Human BCMA-CHO; CHO-hBCMA-2C2
T2 sequence (looked up): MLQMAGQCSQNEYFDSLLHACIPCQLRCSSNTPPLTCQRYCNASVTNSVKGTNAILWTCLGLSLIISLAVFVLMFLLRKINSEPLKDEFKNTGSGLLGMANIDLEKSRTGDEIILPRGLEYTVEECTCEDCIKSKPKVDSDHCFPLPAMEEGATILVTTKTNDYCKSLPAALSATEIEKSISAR
Procedure: (§1) The primary antibody was washed off, 50 μL/well Alexa Fluro647 labeled goat anti-human IgG Fc (1:300 dilution) was added, incubated on ice for 20 min, 50 μL/well PI was added after washing once, incubated for 5 min, and flow cytometer was used to perform detection.

[3] = target: T2, human BCMA on cells (CHO-hBCMA clone …); experiment: flow cytometry, RPMI-8226 cells
Procedure: as §1

[4] = target: T2, human BCMA on cells (CHO-hBCMA clone …); experiment: flow cytometry, CHO-human BCMA cells
Procedure: (§2) 50 μL/well Alexa Fluro647 labeled goat anti-human IgG Fc (1:300 dilution) was added to the secondary antibody, incubated on ice for 20 min, 50 μL/well PI solution (1:300) was added after washing once, incubated for 5 min, and flow cytometer was used to perform detection.

[5] = target: T3, cynomolgus monkey BCMA on CHO cells (CHO-cynoBCMA clone 1A2) (cynomolgus monkey, UniProt A0A2K5UD97 1-183); experiment: flow cytometry, CHO-cynomolgus monkey BCMA cells
T3 construct: whole, on cells; also called Cynomolgus monkey BCMA-CHO; CHO-cynoBCMA-1A2
T3 sequence (A0A2K5UD97 entry or part of it): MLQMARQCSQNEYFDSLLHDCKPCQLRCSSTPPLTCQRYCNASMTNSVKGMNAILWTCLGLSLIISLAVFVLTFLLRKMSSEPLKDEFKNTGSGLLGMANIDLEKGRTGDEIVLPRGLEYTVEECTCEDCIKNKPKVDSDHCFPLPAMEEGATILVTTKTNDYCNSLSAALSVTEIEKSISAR
Procedure: as §2

[6] = target: T1, human CD3 on T cells (Jurkat cells; …); experiment: flow cytometry, peripheral blood CD4+ T cells (PBMC)
Procedure: (§3) Fresh human or cynomolgus monkey peripheral blood was taken and PBMC was isolated by Ficoll-Paque Plu (GE, 17-1440-03). […] 50 μL/well Alexa Fluro647 labeled goat anti-human IgG Fc (1:300 dilution) was added to the secondary antibody, ice bath for 20 min, 50 μL/well PI was added after washing once, incubated for 5 min, and flow cytometer (BD C6) was used to perform detection.

[7] = target: T1, human CD3 on T cells (Jurkat cells; …); experiment: flow cytometry, peripheral blood CD8+ T cells (PBMC)
Procedure: as §3

[8] = target: T4, human BCMA recombinant antigen (human, UniProt Q02223 1-53); experiment: SPR (Biacore T200), antigen amine-coupled to CM5, antibody as analyte, 1:1 model
T4 construct: range 1-53; also called human BCMA recombinant protein
T4 sequence (looked up): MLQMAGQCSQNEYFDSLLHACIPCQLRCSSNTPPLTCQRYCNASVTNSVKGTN
Procedure: (§4) 10 μg/mL human or cynomolgus monkey BCMA or CD3εγ recombinant antigen was bound to a CM5 chip (GE healthcare) by amino coupling, controlling the amount of antigen bound to approximately 200 RU. After the baseline plateau, gradient-diluted antibodies (from 10 μg/mL, 2-fold dilutions for 7 gradients) flowed through the chip at a flow rate of 30 μL/min for a binding time of 350 seconds and a dissociation time of 600 seconds. Kinetic constants were fitted using Biacore T200 evaluation software with a 1:1 binding model.

[9] = target: T5, cynomolgus monkey BCMA recombinant antigen (cynomolgus monkey, UniProt A0A2K5UD97 1-51); experiment: as above
T5 construct: range 1-52
T5 sequence (A0A2K5UD97 entry or part of it): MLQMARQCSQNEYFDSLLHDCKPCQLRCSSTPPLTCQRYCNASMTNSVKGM
Procedure: as §4

[10] = target: T6, cynomolgus monkey CD3εγ-Fc heterodimer (cynomolgus monkey); experiment: as above
T6 chain 1: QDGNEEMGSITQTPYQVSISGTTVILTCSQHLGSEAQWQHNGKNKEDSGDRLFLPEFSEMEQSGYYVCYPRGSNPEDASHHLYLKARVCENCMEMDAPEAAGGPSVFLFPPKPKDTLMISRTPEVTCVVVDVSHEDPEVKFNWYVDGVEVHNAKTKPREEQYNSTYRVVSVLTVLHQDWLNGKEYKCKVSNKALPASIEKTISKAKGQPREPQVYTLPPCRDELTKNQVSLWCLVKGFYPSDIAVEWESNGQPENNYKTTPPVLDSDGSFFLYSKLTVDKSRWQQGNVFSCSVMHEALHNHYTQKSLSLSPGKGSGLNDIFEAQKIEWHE
T6 chain 2: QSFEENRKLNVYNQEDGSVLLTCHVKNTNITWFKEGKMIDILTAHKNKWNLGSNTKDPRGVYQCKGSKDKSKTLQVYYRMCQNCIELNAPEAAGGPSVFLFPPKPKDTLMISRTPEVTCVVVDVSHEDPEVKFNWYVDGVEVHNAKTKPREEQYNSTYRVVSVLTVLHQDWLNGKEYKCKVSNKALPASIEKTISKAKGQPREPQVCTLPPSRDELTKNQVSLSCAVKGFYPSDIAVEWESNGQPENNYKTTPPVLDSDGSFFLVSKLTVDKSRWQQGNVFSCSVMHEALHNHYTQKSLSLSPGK
Procedure: as §4

[11] = target: T4, human BCMA recombinant antigen; experiment: competition ELISA, coated human BCMA, antibody varied, then biotinylated human APRIL at 240 ng/mL, SA-HRP
Procedure: 1 μg/mL human BCMA recombinant antigen was prepared with pH 9.6 carbonic acid buffer, added to a maxisorp96-well plate, and coated overnight at 4° C. After blocking with 5% skim milk/PBS for 1 h at room temperature, 50 μL antibody per well (4-fold dilution from 30 μg/mL for a total of 10 gradients) was added and incubated for 30 min at room temperature. […] After 3 washes with 0.05% PBST (PBS+0.05% Tween-20) and PBS respectively, 100 μL of SA-HRP (diluted 1:8000) was added to each well and incubated at room temperature for 45 min. Washing 3 times with 0.05% PBST and PBS respectively, 100 μL TMB color-developing solution was added into each well, after 10 min, 50 μL concentrated sulfuric acid was added into each well to stop the reaction, read OD450 nm by a microplate reader, and perform three-parameter fitting curve using Graphpad software.

T1 sequence (P07766 23-207): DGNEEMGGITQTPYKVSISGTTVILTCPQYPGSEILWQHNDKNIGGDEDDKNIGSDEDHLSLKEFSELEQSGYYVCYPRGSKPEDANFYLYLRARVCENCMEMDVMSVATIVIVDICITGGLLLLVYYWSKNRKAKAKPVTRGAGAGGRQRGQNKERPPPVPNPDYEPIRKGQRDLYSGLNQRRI

B1: BCMA×CD3 κλ003 (bispecific antibody, human IgG4 S228P, kappa, lambda)
light 1: DIVLTQSPASLAVSPGQRATITCRASKSVSTSGYSYMHWYQKKPGQPPKLLIYLASNLESGVPARFSGSGSGTDFTLTINPVEAEDTANYYCQHSRELPWTFGQGTKVEIKRTVAAPSVFIFPPSDEQLKSGTASVVCLLNNFYPREAKVQWKVDNALQSGNSQESVTEQDSKDSTYSLSSTLTLSKADYEKHKVYACEVTHQGLSSPVTKSFNRGEC
heavy 1: QVQLVQSGSELKKPGASVKVSCKASGYIFTNFGMNWVREAPGQGLEWMGWINTYTGEQIYADGFTGRFVFSLDTSASTAYLQISSLKAEDTAVYFCARGEIYYGYDVGFVYWGQGTLVTVSSASTKGPSVFPLAPCSRSTSESTAALGCLVKDYFPEPVTVSWNSGALTSGVHTFPAVLQSSGLYSLSSVVTVPSSSLGTKTYTCNVDHKPSNTKVDKRVESKYGPPCPPCPAPEFEGGPSVFLFPPKPKDTLMISRTPEVTCVVVDVSQEDPEVQFNWYVDGVEVHNAKTKPREEQFNSTYRVVSVLTVLHQDWLNGKEYKCKVSNKGLASSIEKTISKAKGQPREPQVCTLPPSQEEMTKNQVSLSCAVKGFYPSDIAVEWESNGQPENNYKTTPPVLDSDGSFFLVSKLTVDKSRWQEGNVFSCSVMHEALHNHYTQKSLSLSLGK
light 2: QAVVTQEPSLTVSPGGTVTLTCRSSTGAVTTSNYANWVQEKPGQAPRGLIGGTNKRAPWTPARFSGSLLGGKAALTITGAQAEDEAEYYCVLWYSNLWVFGGGTKLTVLGQPKAAPSVTLFPPSSEELQANKATLVCLISDFYPGAVTVAWKADSSPVKAGVETTTPSKQSNNKYAASSYLSLTPEQWKSHRSYSCQVTHEGSTVEKTVAPTECS
heavy 2: EVQLVESGGGLVQPGGSLRLSCAASGFTFNTYAMNWVRKAPGKGLEWVGRIRSKYNNYATYYADSVKDRFTISRDDSKNSLYLQMNSLKTEDTAVYYCVRHGNFGNSYVSWFAYWGQGTLVTVSSASTKGPSVFPLAPCSRSTSESTAALGCLVKDYFPEPVTVSWNSGALTSGVHTFPAVLQSSGLYSLSSVVTVPSSSLGTKTYTCNVDHKPSNTKVDKRVESKYGPPCPPCPAPEFEGGPSVFLFPPKPKDTLMISRTPEVTCVVVDVSQEDPEVQFNWYVDGVEVHNAKTKPREEQFNSTYRVVSVLTVLHQDWLNGKEYKCKVSNKGLASSIEKTISKAKGQPREPQVYTLPPCQEEMTKNQVSLWCLVKGFYPSDIAVEWESNGQPENNYKTTPPVLDSDGSFFLYSKLTVDKSRWQEGNVFSCSVMHEALHNHYTQKSLSLSLGK
[1]
  EC50: 0.066 µM
[2]
  EC50: 0.034 µM
[3]
  EC50: 0.034 µM
[4]
  EC50: 0.016 µM
[5]
  EC50: 0.003 µM
[6]
  EC50: 0.087 µM
[7]
  EC50: 0.097 µM
[8]
  Kd: 0.0013 µM
[9]
  Kd: 0.00016 µM
[10]
  Kd: 0.043 µM
[11]
  IC50 (read off the curve): ~0.008 µM

B2: BCMA×CD3 κλ004 (bispecific antibody, human IgG4 S228P, kappa, lambda)
light 1: DIVLTQSPASLAVSPGQRATITCRASKSVTTSGYSYIHWYQKKPGQPPKLLIYLASDLEAGVPARFSGSGSGTDFTLTINPVEAEDTANYYCQHSRELPWTFGQGTKVEIKRTVAAPSVFIFPPSDEQLKSGTASVVCLLNNFYPREAKVQWKVDNALQSGNSQESVTEQDSKDSTYSLSSTLTLSKADYEKHKVYACEVTHQGLSSPVTKSFNRGEC
heavy 1: QVQLVQSGSELKKPGASVKVSCKASGYIFTNFGMNWVREAPGQGLEWMGWINTYTGEQIYADGFTGRFVFSLDTSASTAYLQISSLKAEDTAVYFCARGEIYYGYDVGFVYWGQGTLVTVSSASTKGPSVFPLAPCSRSTSESTAALGCLVKDYFPEPVTVSWNSGALTSGVHTFPAVLQSSGLYSLSSVVTVPSSSLGTKTYTCNVDHKPSNTKVDKRVESKYGPPCPPCPAPEFEGGPSVFLFPPKPKDTLMISRTPEVTCVVVDVSQEDPEVQFNWYVDGVEVHNAKTKPREEQFNSTYRVVSVLTVLHQDWLNGKEYKCKVSNKGLASSIEKTISKAKGQPREPQVCTLPPSQEEMTKNQVSLSCAVKGFYPSDIAVEWESNGQPENNYKTTPPVLDSDGSFFLVSKLTVDKSRWQEGNVFSCSVMHEALHNHYTQKSLSLSLGK
light 2: QAVVTQEPSLTVSPGGTVTLTCRSSTGAVTTSNYANWVQEKPGQAPRGLIGGTNKRAPWTPARFSGSLLGGKAALTITGAQAEDEAEYYCVLWYSNLWVFGGGTKLTVLGQPKAAPSVTLFPPSSEELQANKATLVCLISDFYPGAVTVAWKADSSPVKAGVETTTPSKQSNNKYAASSYLSLTPEQWKSHRSYSCQVTHEGSTVEKTVAPTECS
heavy 2: EVQLVESGGGLVQPGGSLRLSCAASGFTFNTYAMNWVRKAPGKGLEWVGRIRSKYNNYATYYADSVKDRFTISRDDSKNSLYLQMNSLKTEDTAVYYCVRHGNFGNSYVSWFAYWGQGTLVTVSSASTKGPSVFPLAPCSRSTSESTAALGCLVKDYFPEPVTVSWNSGALTSGVHTFPAVLQSSGLYSLSSVVTVPSSSLGTKTYTCNVDHKPSNTKVDKRVESKYGPPCPPCPAPEFEGGPSVFLFPPKPKDTLMISRTPEVTCVVVDVSQEDPEVQFNWYVDGVEVHNAKTKPREEQFNSTYRVVSVLTVLHQDWLNGKEYKCKVSNKGLASSIEKTISKAKGQPREPQVYTLPPCQEEMTKNQVSLWCLVKGFYPSDIAVEWESNGQPENNYKTTPPVLDSDGSFFLYSKLTVDKSRWQEGNVFSCSVMHEALHNHYTQKSLSLSLGK
[1]
  EC50: 0.061 µM
[2]
  EC50: 0.036 µM
[3]
  EC50: 0.039 µM
[4]
  EC50: 0.022 µM
[5]
  EC50: 0.003 µM
[6]
  EC50: 0.077 µM
[7]
  EC50: 0.084 µM
[8]
  Kd: 0.001 µM
[9]
  Kd: 0.00012 µM
[10]
  Kd: 0.043 µM
[11]
  IC50 (read off the curve): ~0.005 µM
